Reference: patent US20260042850A1 (LOCKBODY THERAPEUTICS, published 2026)
Changes are numbered by the printed parent chain.

B1: MH4 (antibody, IgG4, V domains shown)
VH: QVQLVQSGAEVKKPGASVKVSCKASGYTFTSYTMHWVRQAPGQGLEWMGWINPSGGSTSYAQKFQGRVTMTRDTSTSTVYMELSSLRSEDTAVYYCARQEITTEFDYWGQGTLVTVSS
VL: EIVLTQSPGTLSLSPGERATLSCRASQSVSSYANSYLHWYQQKPGQAPRLLIYRGSTRESGIPDRFSGSGSGTDFTLTISRLEPEDFAVYYCQQSKSEPLTFGGGTKVEIK
B2: 04F09 (antibody, IgG4, V domains shown)
VH: B1 VH with T28I, T33S, G55N, S57L, T58A, S59N, Y107I
VL: B1 VL with S30E, N34Q, E98D
B3: 09E04 (antibody, IgG4, V domains shown)
VH: B1 VH with T28I, S54N
VL: B1 VL with S30E, S95Y, K96G
B4: MH7 (antibody, human IgG4, V domains shown)
VH: B1 VH with W50I
VL: B1 VL
B5: 08G07 (antibody, human IgG4, V domains shown)
VH: B1 VH with S57L, T58A, S59N, Q99S, E104D
VL: B1 VL with S30D
B6: MH10 (antibody, IgG4, V domains shown)
VH: B1 VH with T33A
VL: B1 VL
B7: MH7-1 (antibody, human IgG4, V domains shown)
VH: B1 VH with W50I
VL: B1 VL with S60T
B8: MH7-3 (antibody, human IgG4, V domains shown)
VH: B1 VH with W50I
VL: B1 VL with N34Q, S60T, S97E, E98S

These binders were tested against T1, cynomolgus monkey C-MET on stably transfected CHO-K1 cells (cynomolgus monkey, UniProt A0M8R7 25-1381 (Papio anubis entry)) (assay: flow cytometry, C-MET CHO-K1 cells).
T1 construct: also called cycMET; cyno C-MET+ CHO-K1 cells
T1 sequence (A0M8R7 25-1381 S170N/I621T limits assumed): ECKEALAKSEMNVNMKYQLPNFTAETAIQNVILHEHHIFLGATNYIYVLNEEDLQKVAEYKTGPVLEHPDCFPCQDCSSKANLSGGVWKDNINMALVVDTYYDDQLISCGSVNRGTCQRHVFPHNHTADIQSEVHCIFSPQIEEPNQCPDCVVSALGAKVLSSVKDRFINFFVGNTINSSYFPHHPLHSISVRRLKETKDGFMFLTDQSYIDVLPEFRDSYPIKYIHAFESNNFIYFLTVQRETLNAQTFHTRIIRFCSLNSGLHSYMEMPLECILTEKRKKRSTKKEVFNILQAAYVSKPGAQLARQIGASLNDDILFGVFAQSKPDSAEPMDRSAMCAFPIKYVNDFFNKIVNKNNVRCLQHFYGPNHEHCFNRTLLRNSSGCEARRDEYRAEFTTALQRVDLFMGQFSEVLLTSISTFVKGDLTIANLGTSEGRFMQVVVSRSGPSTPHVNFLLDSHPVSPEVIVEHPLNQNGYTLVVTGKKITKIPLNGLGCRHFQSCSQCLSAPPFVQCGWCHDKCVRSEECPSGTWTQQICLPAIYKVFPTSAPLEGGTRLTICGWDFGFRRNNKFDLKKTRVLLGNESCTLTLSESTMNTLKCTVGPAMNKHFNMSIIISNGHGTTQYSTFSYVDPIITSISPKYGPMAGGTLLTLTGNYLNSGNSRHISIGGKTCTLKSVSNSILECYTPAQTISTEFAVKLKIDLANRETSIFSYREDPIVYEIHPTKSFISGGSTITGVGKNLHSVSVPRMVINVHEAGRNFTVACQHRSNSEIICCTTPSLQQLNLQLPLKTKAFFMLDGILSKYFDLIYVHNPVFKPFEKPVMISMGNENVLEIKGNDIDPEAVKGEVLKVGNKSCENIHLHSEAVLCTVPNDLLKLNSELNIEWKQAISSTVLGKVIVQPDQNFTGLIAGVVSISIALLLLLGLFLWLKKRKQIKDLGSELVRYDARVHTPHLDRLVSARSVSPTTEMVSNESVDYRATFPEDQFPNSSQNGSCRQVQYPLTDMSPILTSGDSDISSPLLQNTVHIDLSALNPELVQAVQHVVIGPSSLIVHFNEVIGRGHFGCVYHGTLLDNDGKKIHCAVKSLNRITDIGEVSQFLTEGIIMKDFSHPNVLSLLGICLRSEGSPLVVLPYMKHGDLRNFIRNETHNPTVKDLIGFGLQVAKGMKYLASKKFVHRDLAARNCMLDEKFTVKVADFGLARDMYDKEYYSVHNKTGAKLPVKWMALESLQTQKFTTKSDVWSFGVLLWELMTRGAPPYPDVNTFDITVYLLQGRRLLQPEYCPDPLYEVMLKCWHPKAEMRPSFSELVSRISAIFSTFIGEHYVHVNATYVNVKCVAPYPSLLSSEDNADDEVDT
Method: (§1) Purified IgGs were tested in FACs for binding to human and cyno C-MET expressed on CHO-K1 stable cell lines and CHO-K1 wild-type cells. The IgG samples were titrated in three-fold serial dilutions starting at 500 nM to 0.08 nM. Binding of IgGs was detected with a mouse anti-human IgG conjugated to FITC. Results were analyzed by examining the Mean Fluorescence Intensity (MFI) of 10000 cells per sample in the BL-1 channel detector of a flow cytometer (Attune™ NxT Acoustic Focusing Cytometer, Invitrogen/ThermoFisher Scientific).
B1 gave an EC50 of 0.48 nM.
For B2, the EC50 was 0.64 nM.
B3 showed an EC50 of 1.11 nM.
B4 gave an EC50 of 0.54 nM.
For B5, the EC50 was 0.68 nM.
B6 showed an EC50 of 0.46 nM.

Each binder was assayed against T2, human C-MET on stably transfected CHO-K1 cells (human, UniProt P08581 25-1390) (assay: flow cytometry, C-MET CHO-K1 cells).
T2 construct: also called hucMET; human C-MET+ CHO-K1 cells
T2 sequence (P08581 25-1390 limits assumed): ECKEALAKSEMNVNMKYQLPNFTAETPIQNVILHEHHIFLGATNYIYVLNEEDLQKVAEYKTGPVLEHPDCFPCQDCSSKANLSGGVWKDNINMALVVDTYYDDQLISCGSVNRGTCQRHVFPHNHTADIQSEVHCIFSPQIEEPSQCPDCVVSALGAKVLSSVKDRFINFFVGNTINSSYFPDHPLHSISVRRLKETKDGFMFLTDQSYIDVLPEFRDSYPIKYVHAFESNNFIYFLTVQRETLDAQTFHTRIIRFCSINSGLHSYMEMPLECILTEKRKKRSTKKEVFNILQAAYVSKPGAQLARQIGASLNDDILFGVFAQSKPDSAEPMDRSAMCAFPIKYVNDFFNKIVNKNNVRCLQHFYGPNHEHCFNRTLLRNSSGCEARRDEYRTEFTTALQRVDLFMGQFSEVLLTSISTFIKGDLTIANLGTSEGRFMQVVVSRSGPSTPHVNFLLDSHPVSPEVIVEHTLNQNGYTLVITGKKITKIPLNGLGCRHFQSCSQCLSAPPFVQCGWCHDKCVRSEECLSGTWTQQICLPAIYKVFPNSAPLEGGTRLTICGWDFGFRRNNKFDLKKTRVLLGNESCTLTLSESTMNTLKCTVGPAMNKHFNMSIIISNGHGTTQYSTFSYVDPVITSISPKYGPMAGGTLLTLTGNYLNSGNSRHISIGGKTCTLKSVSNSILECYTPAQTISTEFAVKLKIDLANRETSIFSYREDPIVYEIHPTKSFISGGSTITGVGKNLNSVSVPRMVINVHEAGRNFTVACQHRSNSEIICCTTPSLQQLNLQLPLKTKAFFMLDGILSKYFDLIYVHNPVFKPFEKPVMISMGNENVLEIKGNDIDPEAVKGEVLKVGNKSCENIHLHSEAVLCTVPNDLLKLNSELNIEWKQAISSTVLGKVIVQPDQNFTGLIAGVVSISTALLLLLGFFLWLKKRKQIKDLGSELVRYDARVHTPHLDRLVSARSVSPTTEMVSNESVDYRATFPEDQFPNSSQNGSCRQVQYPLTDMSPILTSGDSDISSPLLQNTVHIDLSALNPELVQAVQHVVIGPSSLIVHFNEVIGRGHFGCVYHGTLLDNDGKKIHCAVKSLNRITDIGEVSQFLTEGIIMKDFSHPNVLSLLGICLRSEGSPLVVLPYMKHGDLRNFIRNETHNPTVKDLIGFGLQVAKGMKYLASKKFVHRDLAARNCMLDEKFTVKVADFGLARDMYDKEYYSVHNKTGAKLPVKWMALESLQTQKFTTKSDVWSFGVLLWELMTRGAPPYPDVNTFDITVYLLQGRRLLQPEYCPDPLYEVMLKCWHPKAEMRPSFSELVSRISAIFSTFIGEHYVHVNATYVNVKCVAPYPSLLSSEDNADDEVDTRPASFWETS
Method: as §1
With B1 the EC50 was 1.72 nM.
B2 was tested, and the EC50 was 12.4 nM.
B3 showed an EC50 of 2.9 nM.
In the case of B4, the EC50 is reported as 1.14 nM.
With B5 the EC50 was 4.19 nM.
For B6, the EC50 was 2.14 nM.

What follows are binders tested against T3, human C-MET His tagged, monomeric (human, UniProt P08581 25-932) (assay: SPR Biacore).
T3 construct: also called monomeric human C-MET; biotinylated human C-MET-His
T3 sequence (P08581 25-932): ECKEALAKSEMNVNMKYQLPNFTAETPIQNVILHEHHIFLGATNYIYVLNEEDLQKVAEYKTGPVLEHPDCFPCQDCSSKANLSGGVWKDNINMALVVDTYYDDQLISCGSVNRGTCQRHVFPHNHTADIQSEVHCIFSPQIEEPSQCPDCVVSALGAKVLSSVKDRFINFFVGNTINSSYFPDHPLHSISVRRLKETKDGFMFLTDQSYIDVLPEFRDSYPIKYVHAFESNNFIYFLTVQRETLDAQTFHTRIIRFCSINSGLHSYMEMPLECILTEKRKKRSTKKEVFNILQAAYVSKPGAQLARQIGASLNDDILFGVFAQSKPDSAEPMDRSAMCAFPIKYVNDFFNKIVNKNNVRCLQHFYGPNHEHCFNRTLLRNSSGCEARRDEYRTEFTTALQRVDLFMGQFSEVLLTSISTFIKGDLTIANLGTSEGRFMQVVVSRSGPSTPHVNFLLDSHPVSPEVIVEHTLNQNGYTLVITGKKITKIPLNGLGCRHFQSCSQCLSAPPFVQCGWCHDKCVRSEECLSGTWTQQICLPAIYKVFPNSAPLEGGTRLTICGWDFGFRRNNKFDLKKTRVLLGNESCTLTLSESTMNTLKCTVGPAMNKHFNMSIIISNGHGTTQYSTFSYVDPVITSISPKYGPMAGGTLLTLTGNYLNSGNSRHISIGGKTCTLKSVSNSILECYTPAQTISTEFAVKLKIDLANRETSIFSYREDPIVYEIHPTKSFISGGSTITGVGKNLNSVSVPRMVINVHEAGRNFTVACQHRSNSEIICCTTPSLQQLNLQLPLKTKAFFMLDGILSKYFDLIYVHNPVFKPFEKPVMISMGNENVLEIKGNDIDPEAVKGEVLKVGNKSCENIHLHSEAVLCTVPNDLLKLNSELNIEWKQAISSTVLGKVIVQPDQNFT
Method: (§2) Affinity (KD) of purified IgGs was determined via SPR with antigen in-solution on a Biacore® 3000 (GE). A mouse anti-human antibody (CH1 specific) was immobilized on a CM5 Sensor Chip to a level of 2000 RU in acetate buffer at pH 4.5 using amine coupling following the Wizard instructions for two channels. One channel was used for background signal correction. The standard running buffer HBS-EP pH 7.4 was used. Regeneration was performed with a single injection of 10 μl of 10 mM Glycine at pH 1.5 at 20 μl/minute. IgG samples were injected for 2 minutes at 50 nM at 30 μl/min followed by and off-rate of 60 seconds. The monomeric antigen (human C-MET His tagged or cynomolgus monkey C-MET His tag) was injected in two fold serial dilutions from 100 nM down to 6 nM, for 2 minutes at 30 μl/min followed by an off-rate of 300 seconds. The obtained sensorgrams were analysed using the Biacore® 3000 evaluation (BIAevaluation) software. The KD was calculated by simultaneous fitting of the association and dissociation phases to a 1:1 Langmuir binding model.
In the case of B6, the “fold reduction in binding affinity against MH4” value is reported as about 2 fold.

What follows are binders tested against T3, human C-MET His tagged, monomeric (assay: SPR Biacore, IgG captured, monomeric C-MET-His analyte).
Method: as §2
In the case of B1, the Kd is reported as 0.28 nM, the koff is reported as 2.5e-05 s⁻¹ and the kon is reported as 87000 M⁻¹ s⁻¹.
For B2, the Kd was 0.13 nM, the koff was 1.8e-05 s⁻¹ and the kon was 140000 M⁻¹ s⁻¹.
For B3, the Kd was 0.18 nM, the koff was 1.6e-05 s⁻¹ and the kon was 85000 M⁻¹ s⁻¹.
Binder B7 has a Kd of 1.54 nM, a koff of 0.000151 s⁻¹ and a kon of 97900 M⁻¹ s⁻¹.
B4 was tested, and the Kd was 0.3 nM, the koff was 2.9e-05 s⁻¹ and the kon was 98000 M⁻¹ s⁻¹.
B5 gave a Kd of 0.12 nM, a koff of 7.54e-06 s⁻¹ and a kon of 63400 M⁻¹ s⁻¹.
Binder B6 has a Kd of 0.63 nM, a koff of 4.4e-05 s⁻¹ and a kon of 71000 M⁻¹ s⁻¹.
For B8, the Kd was 1.31 nM, the koff was 0.000123 s⁻¹ and the kon was 94400 M⁻¹ s⁻¹.

These binders were tested against T4, cynomolgus monkey C-MET His tag, monomeric (cynomolgus monkey, UniProt A0M8R7 25-932 (Papio anubis entry)) in the same assay as above.
T4 construct: also called monomeric cyno C-MET; cyCMET
T4 sequence (A0M8R7 25-932 S170N/I621T): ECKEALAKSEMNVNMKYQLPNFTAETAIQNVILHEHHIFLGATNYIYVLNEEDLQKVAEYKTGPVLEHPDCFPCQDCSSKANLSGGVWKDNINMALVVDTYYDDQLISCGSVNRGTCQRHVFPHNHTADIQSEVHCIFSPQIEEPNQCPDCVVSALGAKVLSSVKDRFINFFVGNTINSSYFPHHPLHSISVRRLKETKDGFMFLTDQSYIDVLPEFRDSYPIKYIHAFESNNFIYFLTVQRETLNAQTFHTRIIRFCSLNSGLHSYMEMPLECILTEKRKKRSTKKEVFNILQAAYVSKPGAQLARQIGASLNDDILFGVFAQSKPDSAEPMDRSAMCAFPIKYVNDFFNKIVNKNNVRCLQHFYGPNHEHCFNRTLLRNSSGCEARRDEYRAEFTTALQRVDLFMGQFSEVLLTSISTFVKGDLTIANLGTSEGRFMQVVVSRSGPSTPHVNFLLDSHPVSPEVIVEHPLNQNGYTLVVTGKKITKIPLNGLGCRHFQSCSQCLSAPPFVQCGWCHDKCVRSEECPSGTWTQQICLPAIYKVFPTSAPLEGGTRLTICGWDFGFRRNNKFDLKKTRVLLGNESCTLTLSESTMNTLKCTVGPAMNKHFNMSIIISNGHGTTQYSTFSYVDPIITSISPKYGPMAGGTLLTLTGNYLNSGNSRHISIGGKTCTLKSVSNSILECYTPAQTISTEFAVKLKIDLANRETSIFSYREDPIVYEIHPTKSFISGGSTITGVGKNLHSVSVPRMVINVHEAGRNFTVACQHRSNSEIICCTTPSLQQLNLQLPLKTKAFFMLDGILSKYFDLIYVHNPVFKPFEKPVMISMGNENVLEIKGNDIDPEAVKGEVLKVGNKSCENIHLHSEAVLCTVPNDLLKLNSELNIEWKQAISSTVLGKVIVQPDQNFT
Method: as §2
For B1, the Kd was 0.19 nM, the koff was 4.9e-05 s⁻¹ and the kon was 260000 M⁻¹ s⁻¹.
B2 showed a Kd of 0.19 nM, a koff of 5.6e-05 s⁻¹ and a kon of 290000 M⁻¹ s⁻¹.
B3 showed a Kd of 0.39 nM, a koff of 6.4e-05 s⁻¹ and a kon of 170000 M⁻¹ s⁻¹.
Binder B7 has a Kd of 1.1 nM, a koff of 0.000198 s⁻¹ and a kon of 181000 M⁻¹ s⁻¹.
B4 gave a Kd of 0.19 nM, a koff of 5.2e-05 s⁻¹ and a kon of 270000 M⁻¹ s⁻¹.
B5 showed a Kd of 0.24 nM, a koff of 2.4e-05 s⁻¹ and a kon of 100000 M⁻¹ s⁻¹.
Work on B6 yielded a Kd of 0.2 nM, a koff of 3.6e-05 s⁻¹ and a kon of 180000 M⁻¹ s⁻¹.
For B8, the Kd was 1.03 nM, the koff was 0.000174 s⁻¹ and the kon was 168000 M⁻¹ s⁻¹.

The binders below were run against T5, Insulin (assay: polyreactivity ELISA on insulin).
T5 construct: Coated surface of the polyreactivity (development risk) ELISA
T5 sequence (P01308 25-54, chain 1 of 2): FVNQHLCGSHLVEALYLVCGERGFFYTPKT
T5 sequence (P01308 90-110, chain 2 of 2): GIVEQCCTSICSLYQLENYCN
Design: scale not given here
B7 gave a reactivity score of 1.
B4 showed a reactivity score of 1.
In the case of B5, the reactivity score is reported as 1.
Work on B8 yielded a reactivity score of 1.

These binders were tested against T3, human C-MET His tagged, monomeric (assay: Alphascreen epitope competition in solution: varied IgG4(S228P) against 224G11 IgG4(S228P) binding to biotinylated human C-MET, CPS (crosstalk-corrected)).
Method: FIG. 7. Epitope competition analysis of IgG4(S228P) proteins in Alphascreen. Anti-Humanized h224G11, Grafted clone (Graft) and clones 08G07, MH7, MH7-1, MH7-2, MH7-3 in human IgG4(S228P) format were titrated (in nM) in an epitope competition assay using Alphascreen technology. In this assay, library-derived and designer IgGs were analysed for their retention of the parental 224G11 epitope by competing for 224G11 IgG4(S228P) binding to human C-MET protein, in solution.
The AlphaScreen assay (Perkin Elmer) was performed in a 25 μl final volume in 384-well white microtiter plates (Greiner). The reaction buffer contained 1×PBS pH 7.3 (Oxoid, Cat. nr. BR0014G) and 0.05% (v/v) Tween® 20 (Sigma, Cat. nr. P9416). Purified IgG samples were titrated in three fold serial dilutions starting at 50 nM final concentration and incubated with biotinylated human C-MET-His (Acrobiosystems) at 1 nM final concentration for 20 minutes at room temperature. The parental IgG and the anti-human IgG4(S228P) Acceptor beads at were added and the mix was incubated for 1 hour at room temperature. Followed by addition of the Streptavidin Donor beads and incubation for 30 minutes at room temperature. The emission of light was measured in the EnVision multilabel plate reader (Perkin Elmer) and analysed using the EnVision manager software. Values were reported as Counts Per Second (CPS) and corrected for crosstalk. […]
B8 was tested, and the “IC50 (read off the curve)” value was about 0.2 nM.

Biological target: T1, cynomolgus monkey C-MET on stably …
Test: flow cytometry, C-MET CHO-K1 cells
Remark: another data set of the same source
Method: as §1
(§3) Antibodies to C-MET were analysed for concentration-dependent binding at the cell surface via flow cytometry. CHO-K1 cells were stably transfected with either human or cyno C-MET full-length cDNAs. Anti-C-MET IgGs and an isotype control IgG4(S228P) were then all tested in IgG4(S228P) format, over a concentration range of 500-0.08 nM for binding to human (FIG. 5A) and cyno (FIG. 5B) CHO-K1 cells.
In the case of B1, the “maximum MFI, fold over Isotype IgG4 background” value (“maximum MFI, fold” for short) is reported as over 10 fold.
In the case of B2, the “maximum MFI, fold” value is reported as over 10 fold.
B3 was tested, and the “maximum MFI, fold” value was over 10 fold.
For B7, the “maximum MFI, fold” value was over 10 fold.
B4 was tested, and the “maximum MFI, fold” value was over 10 fold.
With B5 the “maximum MFI, fold” value was over 10 fold.
B6 was tested, and the “maximum MFI, fold” value was over 10 fold.
In the case of B8, the “maximum MFI, fold” value is reported as over 10 fold.

Biological target: T2, human C-MET on stably transfected …
Test: flow cytometry, C-MET CHO-K1 cells
Remark: another data set of the same source
Method: as §1, §3
B1 was tested, and the “maximum MFI, fold” value was over 10 fold.
For B2, the “maximum MFI, fold” value was over 10 fold.
B3 was tested, and the “maximum MFI, fold” value was over 10 fold.
For B7, the “maximum MFI, fold” value was over 10 fold.
With B4 the “maximum MFI, fold” value was over 10 fold.
In the case of B5, the “maximum MFI, fold” value is reported as over 10 fold.
In the case of B6, the “maximum MFI, fold” value is reported as over 10 fold.
With B8 the “maximum MFI, fold” value was over 10 fold.

The binders below were run against T4, cynomolgus monkey C-MET His tag, … (assay: SPR Biacore, monomeric cyno against monomeric human C-MET).
Method: as §2
For B1, the “cyno C-MET affinity, fold of the human C-MET affinity” value (from here on “cyno C-MET affinity, fold”) was at most 2 fold.
With B2 the “cyno C-MET affinity, fold” value was at most 2 fold.
In the case of B3, the “cyno C-MET affinity, fold” value is reported as at most 2 fold.
In the case of B4, the “cyno C-MET affinity, fold” value is reported as at most 2 fold.
B5 was tested, and the “cyno C-MET affinity, fold” value was at most 2 fold.
